5 molecules from patent US20200216522A1 (DENALI THERAPEUTICS, published 2020) can be followed below.

For one assay, the target named is T1, cynomolgus monkey Tau (cynomolgus monkey, UniProt P57786 2-459 (rhesus entry)).
T1 construct: also called cyno Tau; cyno-Tau
Description: ELISA, hybridoma antibody. As for the experimental part: Primary screening was performed by coating 96-well ELISA Nunc plates overnight at 4° C. with 1 μg/mL r-Tau in PBS. The plates were washed three times with PBST using a Biotek plate washer. 50 µL/well of hybridoma supernatants were added to the plates with incubation at room temperature for 1 hour. Plates were washed three times with PBST. A secondary detection antibody goat X m HRP (Southern Biotech) at 1:2000 dilution, 50 μL/well was added to the plate and incubated for 1 hour at room temperature. At the end of an hour, plates were washed three time with PBST. Plates were developed with 50 μL/well of TMB substrate (Thermo Fisher) and quenched with 50 μL/well of 1N sulfuric acid. The signal was quantified on a BioTek® plate reader at A450. Wells with an OD three times the background for r-Tau were considered positive and carried forward for secondary screening.
Positives from primary screening were carried forward into the secondary screening where they were screened by ELISA using the above protocol on r-Tau, p-Tau, and cyno-Tau for binding and cross-reactivity. Further characterization on the five different Tau isoforms was performed by the same method.

The next assay concerns the target T2, Peptide_033 (human).
T2 peptide: GQKGQANATRIPAKT
Nature of the assay: peptide array. The method, boiled down:
(§1)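 Epitope mapping used slides carrying triplicate 15-residue peptides, offset by 5 aa, tiling full-length human Tau 2N4R. Chimeric IgG at 5 μg/mL or murine IgG at 30 μg/mL in 3% BSA-TBST (pH 7.5) bound for 2 h at RT; Alexa Fluor secondaries (568 or 647 nm channel) applied 1 h, then imaged.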

In the next assay the target is T3, Peptide_022 (human).
T3 peptide: AGIGDTPSLEDEAAG
Nature of the assay: peptide array. The method, boiled down: as §1

In another assay the target is T4, Peptide_006 (human).
T4 peptide: QGGYTMHQDQEGDTD
Description: peptide array. The method, boiled down:
as §1

The target of another assay is T5, Peptide_038 (human).
T5 peptide: GEPPKSGDRSGYSSP
Nature of the assay: peptide array. The method in brief:
as §1

For another assay, the target named is T6, Peptide_030 (human).
T6 peptide: DGKTKIATPRGAAPP
Description: peptide array. The method, boiled down:
as §1

For another assay, the target named is T7, Peptide_046 (human).
T7 peptide: VAVVRTPPKSPSSAK
Nature of the assay: peptide array. The method in brief:
as §1

The target in the next assay is T8, Peptide_043 (human).
T8 peptide: RTPSLPTPPTREPKK
Nature of the assay: peptide array. The method, boiled down:
as §1

The target in a further assay is T9, Peptide_066 (human).
T9 peptide: GNIHHKPGGGQVEVK
Description: peptide array. The method in brief:
as §1

The next assay deals with T10, Peptide_056 (human).
T10 peptide: QIINKKLDLSNVQSK
Description: peptide array. The method in brief: as §1

Assay [1] concerns the target T11, full-length human Tau (Tau441; 2N4R), recombinant (human, UniProt P10636 1-758).
T11 construct: made in E. coli, His6-Smt3 tag removed; biotinylated through amines for Octet and phage work; also called r-Tau; recombinant Tau
Nature of the assay: SPR Biacore, antibody captured, r-Tau injected. As for the experimental part:
The affinity of each hybridoma antibody for r-Tau was determined by surface plasmon resonance using a Biacore™ T200 instrument. Biacore™ Series S CM5 sensor chips were immobilized with polyclonal rabbit anti-mouse IgG (Fc) antibody (mouse antibody capture kit from GE Healthcare). 1 μg/mL of antibody was captured for 1 minute on each flow cell and serial 3-fold dilutions of r-Tau were injected at a flow rate of […]. Each sample was analyzed with a 3-minute association and a 10-minute dissociation. After each injection, the chip was regenerated using 10 mM Glycine-HCl (pH 1.7). Binding response was corrected by subtracting the RU from a flow cell capturing an irrelevant IgG at similar density. A 1:1 Languir model of simultaneous fitting of kₒₙ and koff was used for kinetics analysis.

Assay [2] addresses T12, Tau 346-360 peptide phosphorylated at Ser356 (human, SMILES …).
T12 construct: also called pSer356
T12 peptide: Biotin-FKDRVQSKIG[pS]LDNI-NH2
Nature of the assay: ELISA on biotinylated peptide. The procedure: (§2) Peptides corresponding to original binding sites on the microarray were synthesized and included all permutations of phospho-serine epitopes. Peptides were synthesized with a biotinylated N-terminus and C-terminal amide. Peptides were purified and confirmed by mass spectrometry. Peptides were then bound to streptavidin-coated plates in half serial dilutions from 250 ng/well of each peptide. Antibody binding was tested at 1 μg/mL in 5% BSA TBST, followed by washing and detection with goat anti-human HRP (as described above in the “Chimeric IgG ELISA” section).

Assay [3] addresses T13, Tau 251-270 peptide phosphorylated at both Ser258 and Ser262 (human, N-terminal biotin; C-terminal amide; phosphoserine at 258 and 262 (numbering of SEQ ID NO:1)).
T13 construct: also called pSer258 and pSer262 peptide
T13 peptide: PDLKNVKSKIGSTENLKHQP
Nature of the assay: ELISA on biotinylated peptide. The procedure: as §2

The target of assay [4] is T14, Tau 346-360 peptide phosphorylated at Ser352 (human, SMILES …).
T14 construct: also called pSer352
T14 peptide: Biotin-FKDRVQ[pS]KIGSLDNI-NH2
Nature of the assay: ELISA on biotinylated peptide. The procedure:
as §2

Square brackets hold non-standard residues; d marks the D form. * marks the point of attachment. Biotin = O=C1N[C@H]2[C@H](CS[C@H]2CCCCC(=O)*)N1; pS = N[C@@H](COP(=O)(O)O)C(=O)O

T11 sequence (P10636 other isoform, or with tags, fused parts or gaps limits assumed): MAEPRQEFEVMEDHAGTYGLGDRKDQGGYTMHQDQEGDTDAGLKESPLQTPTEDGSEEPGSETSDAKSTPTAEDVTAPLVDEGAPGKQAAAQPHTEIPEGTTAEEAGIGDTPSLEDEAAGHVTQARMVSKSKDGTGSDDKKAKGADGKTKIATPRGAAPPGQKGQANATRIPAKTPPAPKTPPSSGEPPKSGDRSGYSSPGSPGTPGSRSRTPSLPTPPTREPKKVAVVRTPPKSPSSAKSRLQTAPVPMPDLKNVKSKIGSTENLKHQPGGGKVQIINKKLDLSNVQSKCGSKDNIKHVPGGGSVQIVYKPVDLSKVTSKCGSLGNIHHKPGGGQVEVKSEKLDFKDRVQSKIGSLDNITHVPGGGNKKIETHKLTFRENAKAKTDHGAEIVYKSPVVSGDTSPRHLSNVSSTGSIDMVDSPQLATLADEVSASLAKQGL
T1 sequence (P57786 other isoform, or with tags, fused parts or gaps limits assumed): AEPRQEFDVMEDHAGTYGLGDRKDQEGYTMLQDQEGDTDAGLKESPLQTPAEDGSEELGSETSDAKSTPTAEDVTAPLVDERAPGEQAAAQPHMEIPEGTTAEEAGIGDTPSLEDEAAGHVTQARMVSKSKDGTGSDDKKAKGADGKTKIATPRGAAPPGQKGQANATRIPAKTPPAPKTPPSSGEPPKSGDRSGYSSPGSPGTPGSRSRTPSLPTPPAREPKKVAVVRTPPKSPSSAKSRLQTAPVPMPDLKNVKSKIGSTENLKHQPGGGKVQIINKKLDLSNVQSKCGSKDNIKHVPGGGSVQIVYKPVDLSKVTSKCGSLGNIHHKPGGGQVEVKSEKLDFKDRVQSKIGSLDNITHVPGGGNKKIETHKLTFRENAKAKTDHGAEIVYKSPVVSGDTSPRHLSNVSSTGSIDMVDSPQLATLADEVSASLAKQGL

B1: murine anti-Tau hybridoma antibody 17G2.A1 (antibody, V domains shown)
VH: QVQLQQPGAELVGPGSSVKLSCKASGYTFINYWIDWMKQSPGQGLEWIGNIYPSDSESHYNQKFTDKATLTVDISSSTAYLQLSSLTSEDSAVYYCALYSKGYWGQGTSVTVSS
VL: DVLMTQTPLSLPVTLGDQASISCRSSQNIVHTNGNTYLEWYLQKPGQSPKLLIYKLSSRFSGVPDRFSGSGSGTDFTLKISRVEAEDLGVYYCFQGSHLPFTFGGGTKLEIKR
notes: mouse IgG from hybridoma; also called anti-Tau 17G2.A1
For the molecule B1, the binding result is reported as “binds” with cynomolgus monkey Tau; “no binding (tested: 30 ug/mL)” with Peptide_033; “no binding (tested: 30 ug/mL)” with Peptide_022; “no binding (tested: 30 ug/mL)” in the assay with Peptide_006; “binds” with Peptide_038; “no binding (tested: 30 ug/mL)” in the assay with Peptide_030. Besides, the binding result with Peptide_046, with Peptide_043, with Peptide_066 and with Peptide_056 was “no binding (tested: 30 ug/mL)” throughout. Also, the Kd in [1] turned out to be 2.48 nM. Also, the koff in assay [1] turned out to be 0.000383 s⁻¹. Also, the kon in [1] was determined as 155000 M⁻¹ s⁻¹.

B2: chimeric IgG clone 1D10 (antibody, V domains shown)
VH: EVQLQQSGAELVRPGASVKLSCTASGFNIKDSLMHWMKQRPEQGLEWIGWIDPEDGETKYAPKFQDKATLTADTSSNAAYLQLSSLTSEDTAIYYCVRGDWDGGYWGQGTTLTVSS
VL: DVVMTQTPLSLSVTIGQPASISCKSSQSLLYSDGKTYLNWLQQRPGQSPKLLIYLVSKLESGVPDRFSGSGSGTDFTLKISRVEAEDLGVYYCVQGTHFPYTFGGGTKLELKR
notes: mouse-human chimeric IgG from HEK293
Take B2: the binding result with Peptide_033, in the assay with Peptide_022, with Peptide_006, with Peptide_038, in the assay with Peptide_030 and in the assay with Peptide_046 was “no binding (tested: 5 ug/mL)” each time. Besides, the binding result in the assay with Peptide_043, with Peptide_066 and with Peptide_056 was “no binding (tested: 5 ug/mL)” in each case.

B3: chimeric IgG clone 1A5 (antibody, V domains shown)
VH: EVQLQQSGAELVRPGASVKLSCTASGFNIKDSLIHWVKQRPEQGLEWIGWIDPEDGETKYAPKFQDKATKTADTSSNTAYLQLSSLTSEDTAIYYCASGEWDYWGQGTSVTVSS
VL: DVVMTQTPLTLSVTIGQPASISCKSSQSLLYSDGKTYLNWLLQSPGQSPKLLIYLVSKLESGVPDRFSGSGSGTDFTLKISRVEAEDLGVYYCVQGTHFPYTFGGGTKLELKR
notes: as for B2
For B3, the binding result in the assay with Peptide_033, with Peptide_022, with Peptide_006, in the assay with Peptide_038, in the assay with Peptide_030 and with Peptide_046 was “no binding (tested: 5 ug/mL)” each time. Besides, the binding result with Peptide_043, in the assay with Peptide_066 and with Peptide_056 was “no binding (tested: 5 ug/mL)” each time.

B4: chimeric IgG clone 1A1 (antibody, V domains shown)
VH: EVQLQQSGAELVRPGASVRLSCTASGFNIKDSLMHWLKQRPEQGLEWIGWIDPEDGETKYAPKFQDKATITADTSSNTAYLQLSSLTSEDTAIYYCTRRDWEGPWGQGTLVTVSA
VL: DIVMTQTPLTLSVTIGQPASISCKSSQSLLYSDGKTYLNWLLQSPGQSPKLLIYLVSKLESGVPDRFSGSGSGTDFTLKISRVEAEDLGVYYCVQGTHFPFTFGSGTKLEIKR
notes: mouse-human chimeric IgG from HEK293; also called anti-Tau 1A1; anti-Tau^1A1
For B4, the binding result is reported as “binds” in [2]; “binds” in assay [3]; “binds” in [4]; “no binding (tested: 5 ug/mL)” with Peptide_033; “no binding (tested: 5 ug/mL)” with Peptide_022; “no binding (tested: 5 ug/mL)” with Peptide_006. Also, the binding result in the assay with Peptide_038, with Peptide_030, in the assay with Peptide_046, with Peptide_043, with Peptide_066 and with Peptide_056 was “no binding (tested: 5 ug/mL)” each time.

B5: chimeric IgG clone 1G7 (antibody, V domains shown)
VH: EVQLQQSGAEVVRPGASVKLSCTTSGFNIKDSLMHWLKQRPEQGLEWIGWIDPEDGETKYAPKFQDKATITADTSSNTAYLQLSSLTSGDTAIYYCARRDWEGPWGQGTLVTVSA
VL: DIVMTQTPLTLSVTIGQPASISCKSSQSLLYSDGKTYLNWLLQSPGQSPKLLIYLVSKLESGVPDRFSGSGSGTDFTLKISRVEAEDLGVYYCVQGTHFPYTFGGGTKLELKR
notes: as for B2
In the case of B5, the binding result in assay [4] was “binds”; in the assay with Peptide_033, “no binding (tested: 5 ug/mL)”; with Peptide_022 it was “no binding (tested: 5 ug/mL)”; in the assay with Peptide_006, “no binding (tested: 5 ug/mL)”; in the assay with Peptide_038, “no binding (tested: 5 ug/mL)”; in the assay with Peptide_030, “no binding (tested: 5 ug/mL)”. For the same molecule, the binding result with Peptide_046, in the assay with Peptide_043, in the assay with Peptide_066 and in the assay with Peptide_056 was “no binding (tested: 5 ug/mL)” throughout.
